Tests used:
[1] = molecular target: T1, E47 (UniProt P15923-2 P15923-2:1-651); assay: EMSA; comparable affinity on all four probes; conditions: tags: TNT reticulocyte lysate; chain copies: 2 inferred; label: 32P
T1 sequence: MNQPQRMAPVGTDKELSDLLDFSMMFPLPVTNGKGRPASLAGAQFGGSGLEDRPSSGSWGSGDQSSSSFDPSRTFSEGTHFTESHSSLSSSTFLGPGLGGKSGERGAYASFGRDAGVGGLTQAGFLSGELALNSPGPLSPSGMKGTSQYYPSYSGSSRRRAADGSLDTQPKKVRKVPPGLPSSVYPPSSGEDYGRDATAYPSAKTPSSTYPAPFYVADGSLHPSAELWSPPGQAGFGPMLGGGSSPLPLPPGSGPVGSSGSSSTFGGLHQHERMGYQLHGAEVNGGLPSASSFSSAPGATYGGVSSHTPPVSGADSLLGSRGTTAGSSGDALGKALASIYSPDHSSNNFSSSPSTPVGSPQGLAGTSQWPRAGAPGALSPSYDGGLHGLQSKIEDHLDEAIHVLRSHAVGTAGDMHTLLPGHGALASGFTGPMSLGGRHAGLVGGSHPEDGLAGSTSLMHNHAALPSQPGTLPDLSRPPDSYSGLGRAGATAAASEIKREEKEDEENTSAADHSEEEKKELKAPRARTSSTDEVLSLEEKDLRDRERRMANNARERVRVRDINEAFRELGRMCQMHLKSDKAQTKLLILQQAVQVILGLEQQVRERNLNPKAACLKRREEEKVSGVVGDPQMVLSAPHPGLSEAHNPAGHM
Protocol: (§1) FIGS. 23A-23B are photographs of electromobility shift assays (EMSAs) showing that bHLH factors bind pancreatic promoter E boxes. EMSA were used to test the ability of E47, neurogenin3 and neuroD 1 to bind to labeled, double stranded oligonucleotides containing the E box sequences from the rat insulin I and mouse nkx2.2 promoters (23A) or the human PAX4 and NEUROG3 promoters (23B). 1 μl of each in vitro-translated protein was incubated with the indicated probes, either individually or in the combination shown. Results are typical of experiments done on three occasions.
(§2) Electromobility Shift Assays. Single stranded oligonucleotides were 5′-end labeled using (γ-32P) ATP and T4 polynucleotide kinase. An excess of complementary strand was then annealed to form a duplex strand that was column purified. EMSA buffers and electrophoresis conditions were as described above using 500 ng of poly(dIdC):poly(dIdC) per 10 ul binding mix. For in vitro produced protein, 1 μl of the 50 μl total reaction volume was used per binding mix.
(§3) Oligonucleotides used were as follows (coding strand shown from each double stranded pair): NEUROG3 promoter E element, 5′-[…]-3′; rat insulin I promoter E2 element, 5′-[…]-3′; PAX4 promoter E element, 5′-[…]-3′; nkx2.2 promoter E3 element 5′-[…]-3′. EMSA results are representative of those seen on at least 3 occasions.

[2] = molecular target: NeuroD1 (UniProt Q60867 Q60867:1-357); assay: EMSA; homodimer; conditions: tags: TNT reticulocyte lysate; chain copies: 2 stated; label: 32P
Protocol: as §1, §2, §3

[3] = molecular target: T2, E47/NeuroD1 heterodimer (UniProt P15923-2;Q60867 P15923-2:1-651,Q60867:1-357); assay: EMSA; third of four; conditions: tags: TNT reticulocyte lysate; label: 32P
Protocol: as §1, §2, §3

[4] = molecular target: T3, HNF3beta (FOXA2) (Rattus norvegicus, UniProt P32182 P32182:1-458); assay: EMSA; high affinity; proximal and distal sites compete equally; conditions: tags: pGEM-1 ratHNF3beta, TNT lysate; label: 32P
T3 sequence: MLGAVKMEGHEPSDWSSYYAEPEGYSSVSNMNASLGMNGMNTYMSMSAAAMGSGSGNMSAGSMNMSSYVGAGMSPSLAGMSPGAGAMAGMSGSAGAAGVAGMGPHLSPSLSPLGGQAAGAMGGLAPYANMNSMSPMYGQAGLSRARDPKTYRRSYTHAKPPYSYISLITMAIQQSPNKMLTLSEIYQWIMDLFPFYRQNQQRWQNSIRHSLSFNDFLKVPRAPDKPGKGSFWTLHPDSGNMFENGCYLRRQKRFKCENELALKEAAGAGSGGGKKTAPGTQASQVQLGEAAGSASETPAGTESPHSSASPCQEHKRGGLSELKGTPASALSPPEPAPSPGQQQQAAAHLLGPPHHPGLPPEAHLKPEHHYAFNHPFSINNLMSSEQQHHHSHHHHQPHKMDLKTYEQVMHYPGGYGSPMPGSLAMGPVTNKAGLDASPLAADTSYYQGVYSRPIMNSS
Text: (§4) Single-stranded oligonucleotides corresponding to the sequences in the human ngn3 promoter were 5′ end-labeled with [γ-³²P]-ATP using T4 polynucleotide kinase. The labeled oligonucleotides were column-purified and annealed to an excess of the complementary strand. For HNF3β and HNF 1α binding experiments, EMSA buffers and electrophoresis conditions were as previously described (Mirmira et al. J Biol Chem 275:14743-51, 2000). For HES-1 binding experiments, conditions were the same except that the poly(dI-dC) concentration was decreased to 15 ng/ul. One μl of the in vitro reaction mixture or 2 ug of nuclear extracts or 400 ng of GST-fused Hes1 protein were used for each binding reaction. When using antibodies, 1 μl of each antibody was incubated with the binding mix for 15 min at room temperature prior to gel-electrophoresis. The antisera against HNF-3α, -3β, and -3γ were a generous gift from R. Costa (University of Illinois) and the HES-1 antiserum was a generous gift from Y. Jan (University of California San Francisco). The anti-HNF-1α antiserum was purchased from Santa Cruz Biotechnology, Inc. […]

[5] = molecular target: T2, E47/NeuroD1 heterodimer; assay: EMSA; second strongest of four; conditions: tags: TNT reticulocyte lysate; label: 32P
Protocol: as §1, §2, §3

[6] = molecular target: T3, HNF3beta (FOXA2); assay: EMSA; high affinity; conditions: tags: pGEM-1 ratHNF3beta, TNT lysate; label: 32P
Text: as §4

[7] = molecular target: T2, E47/NeuroD1 heterodimer; assay: EMSA; strongest of four; conditions: tags: TNT reticulocyte lysate; label: 32P
Protocol: as §1, §2, §3

T2 sequence (Q60867 whole entry, one chain of several): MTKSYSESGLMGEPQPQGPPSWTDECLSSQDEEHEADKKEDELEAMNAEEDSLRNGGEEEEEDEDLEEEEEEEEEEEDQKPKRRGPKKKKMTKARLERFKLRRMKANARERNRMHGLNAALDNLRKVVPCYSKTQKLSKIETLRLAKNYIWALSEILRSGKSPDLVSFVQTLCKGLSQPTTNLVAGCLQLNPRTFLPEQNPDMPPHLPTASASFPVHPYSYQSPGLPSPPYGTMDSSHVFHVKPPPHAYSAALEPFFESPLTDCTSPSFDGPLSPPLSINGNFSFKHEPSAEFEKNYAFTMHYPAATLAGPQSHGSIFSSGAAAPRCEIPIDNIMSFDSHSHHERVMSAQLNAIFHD
Sequence of NeuroD1 (Q60867 whole entry, one chain of several): as above

B1: nkx2.2 E3 (dsDNA)
DNA 1: TTATTACCGCTGAACATATGGCCAATATTTTGACT
DNA 2: AGTCAAAATATTGGCCATATGTTCAGCGGTAATAA
- binding result [1]: binds
- binding result [2]: binds
- binding result [3]: binds

B2: H3-2 (ngn3 promoter distal) (dsDNA)
DNA 1: TTATTATTATTTTAGCAAACACTGGAGACAG
DNA 2: CTGTCTCCAGTGTTTGCTAAAATAATAATAA
- binding result [4]: binds

B3: rat insulin I E2 (dsDNA)
DNA 1: CTGCTTCATCAGGCCATCTGGCCCCTTGTTAATAA
DNA 2: TTATTAACAAGGGGCCAGATGGCCTGATGAAGCAG
- binding result [1]: binds
- binding result [5]: binds

B4: H3-1 (ngn3 promoter proximal) (dsDNA)
DNA 1: GATCTCTCGAGAGAGCAAACAGCGCGGCGG
DNA 2: CCGCCGCGCTGTTTGCTCTCTCGAGAGATC
- binding result [6]: binds

B5: PAX4 E box (dsDNA)
DNA 1: TGTATAATTGTGAGCAGATGGCGGGGGCTGGCGGC
DNA 2: GCCGCCAGCCCCCGCCATCTGCTCACAATTATACA
- binding result [7]: binds
- binding result [1]: binds

B6: NEUROG3 E box (dsDNA)
DNA 1: CTTTGTCCGGAATCCAGCTGTGCCCTGCGGGGGAG
DNA 2: CTCCCCCGCAGGGCACAGCTGGATTCCGGACAAAG
- binding result [1]: binds

— patent US20040106555, “Neurogenin3 and production of pancreatic islet cells” (published 2004)
